Laboratory results published in paper doi:10.1101/2023.01.18.524551 (bioRxiv, 2023).

Target: T1, C3aR R161A (human, UniProt Q16581 1-482, R161^ECL2A)
T1 sequence: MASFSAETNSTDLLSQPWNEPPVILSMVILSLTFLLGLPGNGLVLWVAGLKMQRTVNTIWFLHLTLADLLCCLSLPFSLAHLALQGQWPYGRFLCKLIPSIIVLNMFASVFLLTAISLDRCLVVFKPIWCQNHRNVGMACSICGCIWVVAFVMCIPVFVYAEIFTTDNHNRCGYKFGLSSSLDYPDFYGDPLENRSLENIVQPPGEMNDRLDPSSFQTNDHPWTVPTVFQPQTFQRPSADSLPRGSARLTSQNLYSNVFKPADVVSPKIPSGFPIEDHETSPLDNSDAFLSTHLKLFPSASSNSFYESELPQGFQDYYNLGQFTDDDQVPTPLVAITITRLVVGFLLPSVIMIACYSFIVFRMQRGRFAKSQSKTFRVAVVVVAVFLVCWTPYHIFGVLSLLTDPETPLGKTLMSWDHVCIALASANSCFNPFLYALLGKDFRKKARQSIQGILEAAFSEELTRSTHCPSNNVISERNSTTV
Assay: cell-based or functional assay

B1: His6-SUMOstar-C3a (recombinant human C3a, residues 1-77) (ligand)
chain: not shown
B1 was tested, and the “decrease of the potency of C3a against the wild type (GloSensor cAMP assay)” value was greater than 100 fold.
